Reference: patent publication US20070212341A1, “Method for Preparing Active Kinases Containing Ph Domains” (priority 2004, published 2007)

Tested on: histone 2B
Experiment: Kinase activity measurement (histone 2B phosphorylation, [33P]ATP flashplate)
Format: biochemical
Method: Another possibility of detecting the enzymic activity of Akt is that of incubating 100 ng of Akt, at 30° C. for 80 min, with 100 ng of histone 2B in a buffer composed of 50 mM Hepes (pH 7.5), 3 mM MgCl2 and 3 mM MnCl2, 3 μM sodium vanadate, 1 mM DTT, 1% DMSO, 100 nM ATP and 0.16 nM [^33P]-ATP. After stopping the reaction with phosphoric acid and washing with water, the incorporated cpm [counts per minute] are then determined, in a flashplate (NEN) in a Wallac Trilux measuring instrument, as a measure of the phosphorylation of the histone 2B. In this measuring instrument, the quantity of light which was generated from the radioactive decay by the scintillation gel present in the wells is measured quantitatively. It is a direct measure of the degree of phosphorylation of the Akt substrate employed.
In order to measure the kinase activity of truncated Akt1 (Akt1ΔPH) as well as of native Akt1, in each case 100 ng of Akt were incubated, at 30° C. for 80 min, with 100 ng of histone 2B in a buffer comprising 50 mM Hepes, pH 7.5, 3 mM MgCl2 and 3 mM MnCl2, 3 μM sodium vanadate, 1 mM DTT, 1% DMSO, 100 nM ATP and 0.16 nM [^33P]ATP. After the reaction had been stopped with phosphoric acid and the wells had been washed with water, the incorporated […], in a Wallac Trilux measuring instrument, as a measure of the histone 2B phosphorylation. In this measuring instrument, the quantity of light which was generated from the radioactive decay by the scintillation gel which was present in the wells was measured quantitatively. It is a direct measure of the degree of the phosphorylation of the Akt substrate employed.
Commercially obtainable wild-type Akt1 protein (Upstate Biochemicals, Charlottsville, Va., USA), which was likewise expressed in SF9 cells using the baculovirus system and then purified, was also used (results of the activity measurement in FIG. 1a, left-hand column).
The activity of an Akt derivative, which was expressed using the present method and obtained as an active kinase derivative, was compared with the activity of a commercially obtainable Akt1 enzyme (Upstate, Charlottsville, Va., USA). The activity of the commercially obtainable enzyme was obtained by expressing the enzyme, which contained the PH domain, in the baculovirus system and then purifying it. The enzyme was subsequently incubated with PDK1 in the presence of phosphatidylinositol […] lipid vesicles in order to phosphorylate Akt1 at threonine 308. After that, the activated Akt enzyme was separated chromatographically in order to separate it off from the activating PDK1 kinase. The enzyme activities of the two kinases were measured as described in Ex. 4.

[1] = FIG. 1a, 100 ng Akt, 100 ng histone 2B, 30° C., 80 min, expressed in SF9 cells

B1: PDK1-activated Akt1ΔPH: truncated Akt1 protein (amino acids 107-481, GST tag) without PH domain, activated by coexpression with truncated PDK1 in SF9 cells (protein)
chain: ADGLKKQEEEEMDFRSGSPSDNSGAEEMEVSLAKPKHRVTMNEFEYLKLLGKGTFGKVILVKEKATGRYYAMKILKKEVIVAKDEVAHTLTENRVLQNSRHPFLTALKYSFQTHDRLCFVMEYANGGELFFHLSRERVFSEDRARFYGAEIVSALDYLHSEKNVVYRDLKLENLMLDKDGHIKITDFGLCKEGIKDGATMKTFCGTPEYLAPEVLEDNDYGRAVDWWGLGVVMYEMMCGRLPFYNQDHEKLFELILMEEIRFPRTLGPEAKSLLSGLLKKDPKQRLGGGSEDAKEIMQHRFFAGIVWQHVYEKKLSPPFKPQVTSETDTRYFDEEFTAQMITITPPDQDDSMECVDSERRPHFPQFSYSASGTA
modifications: phosphorylated at threonine 308 and serine 473, as the filing says of the active form
kinase activity compared with commercially obtainable native Akt1 activated by subsequent phosphorylation by PDK1 in the presence of lipid vesicles (Ex. 5, measured as described in Ex. 4): at least the same activity
kinase activity (histone 2B phosphorylation) compared with Akt1ΔPH not activated by coinfection with PDK1-encoding baculoviruses [1]: markedly higher activity
kinase activity (histone 2B phosphorylation) compared with Akt kinase derivative containing the PH domain with threonine 308 and serine 473 replaced with aspartic acid [1]: markedly higher activity
kinase activity (histone 2B phosphorylation) compared with commercially obtainable wild-type Akt1 not activated by coinfection with PDK1-encoding baculoviruses (FIG. 1b, Ex. 4b, measured as in Ex. 4a): markedly higher activity
